In patent publication US12012599B2, “Compositions and methods for modulating left-right differentiation factor (LEFTY) and bone morphogenic factor (BMP)” (CZ Biohub SF LLC, priority 2018, dated 2024):
Like-named read-outs stand apart in the source and are kept apart here.

Legend:
ACVR2B = assay: Proximity ligation assay with other TGF-β receptors; format: binding
Method: (§1) FIGS. 5I-5J: LEFTY1 preferentially interacts with BMPR2. […] BMP7-BMPR2 interaction was used as a positive control, and mouse and rabbit IgGs were used as technical negative controls. The interaction of LEFTY with Wnt receptor LRP6 was analyzed as a biological negative control. […] Data are represented as median±S.D. Statistical analysis, one-way ANOVA post-hoc Tukey multiple comparison, ****p<0.0001, ***p<0.001; unless stated analysis is non-significant with p>0.05.
Next, we assessed the interaction of LEFTY with different type I and type II TGF-β receptors. BMP7-BMPR2 interaction was used as a positive control, and mouse and rabbit IgGs were used as technical negative controls. We also analyzed the interaction of LEFTY with Wnt receptor LRP6 as a biological negative control.

pSMAD5 = assay: Western-blot of pSMAD5 in Comma-D mammary epithelial cells; format: cell-based, mouse; settings: Comma-D cells blocked with LEFTY1 200 ng/ml 1 hour, stimulated with BMP7 and Nodal 50 ng/ml 30 minutes
Method: (§2) FIGS. 4J-4L. LEFTY1 inhibits pSMAD2 and pSMAD5 in Comma-D mouse mammary epithelial cells. […] Comma-D cells were serum starved 16 hours and blocked with LEFTY1 (200 ng/ml) for 1 hour and stimulated with BMP7 (50 ng/ml) and Nodal (50 ng/ml) for 30 minutes in serum free media. Cells were harvested in 1×RIPA Buffer with 1× protease and phosphatase inhibitors on ice. Lysates were diluted in 4× sample buffer and boiled at 95° C. for 5 minutes and then run on a 10% SDS-page gradient gels at 100V for 1 hour. […] The membranes were incubated with either pSMAD2, pSMAD5, total SMAD2/3 or SMAD1/5/8 antibodies overnight. Incubation with secondary antibodies containing fluorophores at 1:20,000 dilution (IRDye 800CW conjugated goat anti-rabbit #926-32211, IRDye 680 conjugated goat anti-mouse antibodies #926-32220, LI-COR Biosciences, Lincoln, NE) enabled visualization on the Odyssey Infrared Imaging System from LI-COR Biosciences. […] Data are represented as median±S.D. Statistical analysis, one-way ANOVA with post-hoc Tukey multiple comparison, ****p<0.0001, ***p<0.001; unless stated analysis is non-significant with p>0.05.

pSMAD5 activation = assay: pGL3 BRE-luciferase reporter in 3T3-L1 fibroblasts; format: cell-based; settings: 16 hours
Method: (§3) FIGS. 7A-7E. LEFTY1 interaction with BMPR2 inhibits the phosphorylation of SMAD5. […] Ten different fields were counted per condition (n=3). […] 48 hours after transfection, cells were washed and incubated with different concentrations of BMP7 (from 0-800 ng/ml) for 16 hours prior to collection of the cells. […] 48 hours after transfection, cells were washed and incubated with different concentrations of LEFTY1 (from 0-200 ng/ml) for 16 hours prior to collection of the cells. […] 48 hours after transfection, cells were washed and incubated with different concentrations of BMP7 and LEFTY1 at the indicated concentrations for 16 hours prior to collection of the cells. Data are represented as median±S.D. Statistical analysis, one-way ANOVA with Dunnet's adjustment, *p<0.05; **p<0.01; ****p<0.0001.
FIGS. 7F-7I: pSMAD5 activation in the presence of LEFTY1, BMP2 and BMP4. […] 48 hours after transfection, cells were washed and incubated with different concentrations of BMP2 (from 0-800 ng/ml) for 16 hours prior to collection of the cells. […] 48 hours after transfection, cells were washed and incubated with different concentrations of BMP2 and LEFTY1 for 16 hours prior to collection of the cells. FIG. 7H and FIG. 7I show 3T3-L1 fibroblasts transfected with pGL3 BRE-luciferase plasmid. […]
We also evaluated whether LEFTY1 could inhibit pSMAD5 activation induced by other BMPs. […]

BMPR2 [1] = assay: In situ target-mediated (proximity) ligation assay, BMPR2; format: binding
Excerpt: (§4) FIGS. 5A-5H. LEFTY1 inhibits pSMAD2 and pSMAD5 in the basal mammary epithelial cells. […] KRT8 was used to stain the luminal cells and SMA for basal cells (Magnification 400×). […] Gapdh was used as a housekeeping gene. […] Ten different fields were counted per condition (n=3). Data are represented as median±S.D. Statistical analysis, (a and b) Student's T-test, * p<0.05; (h) One-way ANOVA with Dunnet's adjustment, ****p<0.0001.
as §1
Since BMPR2 is upstream of pSMAD1/5/8, we reasoned that BMPR2 could serve as a common BMP Type II receptor that mediates the BMP7/LEFTY1 axis. […] The interaction between BMP7 and BMPR2 was used as a positive control (p<0.0001) (FIG. 5G-5H and FIG. 7B).
Next, we assessed the interaction of LEFTY with different type I and type II TGF-β receptors. […] We also analyzed the interaction of LEFTY with Wnt receptor LRP6 as a biological negative control. […]

pSMAD2 = assay: Western-blot of pSMAD2 in Comma-D mammary epithelial cells; format: cell-based, mouse; settings: Comma-D cells blocked with LEFTY1 200 ng/ml 1 hour, stimulated with BMP7 and Nodal 50 ng/ml 30 minutes
Method: as §2

BMPR2 [2] = assay: LEFTY1 and BMPR2 immunoprecipitation assays; format: binding; settings: both directions
Excerpt: as §4, §3
Since BMPR2 is upstream of pSMAD1/5/8, we reasoned that BMPR2 could serve as a common BMP Type II receptor that mediates the BMP7/LEFTY1 axis. […]

B1: LEFTY1: left-right determination factor 1, secreted TGF-β superfamily protein; generic LEFTY may mean LEFTY1 or LEFTY2 (protein, UniProt O75610 77-366, looked up)
Left-right determination …: RFSQSFREVAGRFLALEASTHLLVFGMEQRLPPNSELVQAVLRLFQEPVPKAALHRHGRLSPRSARARVTVEWLRVRDDGSNRTSLIDSRLVSVHESGWKAFDVTEAVNFWQQLSRPRQPLLLQVSVQREHLGPLASGAHKLVRFASQGAPAGLGEPQLELHTLDLGDYGAQGDCDPEAPMTEGTRCCRQEMYIDLQGMKWAENWVLEPPGFLAYECVGTCRQPPEALAFKWPFLGPRQCIASETDSLPMIVSIKEGGRTRPQVVSLPNMRVQKCSCASDGALVPRRLQP
ACVR2B
  interaction with other TGF-β receptors, ACVR2B: also interacted
pSMAD5
  pSMAD5 signal: inhibited
pSMAD5 activation
  inhibition of BMP7-mediated pSMAD5 activation: inhibit BMP7-mediated pSMAD5 activation in a dose-dependent fashion
  inhibition of pSMAD5 activation induced by BMP2 or BMP4: less of an inhibitory effect
BMPR2 [1]
  protein interaction with BMPR2: significant protein interaction
BMPR2 [1]; listed as LEFTY
  protein interaction with BMPR2: interacted preferentially
pSMAD2
  pSMAD2 signal: inhibited
BMPR2 [2]
  binding of LEFTY1 to BMPR2 (pull-down): able to detect the binding
